From patent US20220356497A1, “COMPOSITIONS AND METHODS FOR SYNTHESIS OF TERPENOIDS” (Zymergen Inc., priority 2019, published 2022)
“Also recorded” adds a separate entry of the source.

B1: NcatNOR15: candidate nepetalactol oxidoreductase (NOR) from Nepeta cataria, protein SEQ ID NO: 561 (protein, listed as Nepeta cataria)
chain: MAKTPETEHPVKAFGYAATDNSGTFSPFKFSRRATGERDVQFKVLYCGVCHSDLHMVKNEWGVTHYPIVPGHEIVGVATEVGSKVEKVKVGDKVGVGVIVGSCRQCDQCSNDLENYCSKQILTYGAPYLDGTITRGGYSDIMVADEHFIIRWPENFPLDAGAPLLCAGITTYSPLRYFGLDKPGLRVGVNGLGGLGHVAVKFAKAFGTKVTVISSSLRKKKEAVEKLGVDEFLVSTDPEQMQAAIGTLDGIIDTVSAEHSVVSLLSLLKPHGRLIVVGAPEKPHQLPAFPLITGRKSISGSAIGGMKETQEMIDFAAKHNILPDVEVIPIDYINTAMERLLKSDVKYRFVIDVEKSLKA
B2: NcatNOR34: candidate nepetalactol oxidoreductase (NOR) from Nepeta cataria, protein SEQ ID NO: 578 (protein, listed as Nepeta cataria)
chain: MAFCRSSLLLRKALGGSRRAAAAATCSSAYACGWQSERGRWYSGGEGTTISAPGYHVNTAPSHMTGAVFWDKDKPITYEEFEMPRPKANEVLIKTKACGACHSDLHVIKGDLKFPCPCILGHEITGEVVEHGPLTETKYIERYPVGSKVIGAFIMPCGSCFYCSRGEDDLCEPYFAYNRAKGTLYDGQTRLFLRGSGKPVHMWSMSGLAEYCVTPVNGLGALPDTLPYAESSVLGCAVFTAYGAIAHAAEVKPGNSVAVIGIGGVGSSCLQIAKAFGASEIIAVDVEDGKLETAKTFGATHIINSRKEDAIAKIKELTDGRGVDIAVEAIGGPKTFAQCVGSVRAGGKAVMIGLSPTGGKGEVEITQLVRRKVKVIGSYGGRAMTDLPKLVELAEQGTFNLEAAVTRRYKFEEVAQAYQDLQNKTIVGRGVIEIM
B3: GAR_NOR15: NOR candidate (SEQ ID NO: 1393) expressed in Saccharomyces cerevisiae from pESC-URA (protein)
chain: MADKEGEVVCVTGGSGFIGSWLVSLLLRRGYSVRATVKNLGDERETKHLEAIEGADSRLSLFQIDLLDYDSVATAVGDAAGVFHLASPCTIDQVNDPQRELLDPAIKGTLNVLKAAKNLGVRRVVVTSSISAMIASSNSLAETGEDCWIDEDYCRQNGLWYPVSKALAEKAAWKLAEENGLDIVVVNPGMVVGPILPPALNSSMQLMLHVLQGKDFFEGFFMGLVHVKDVALAQILLYENTSASGRHLCVESLSRYDDFAKQMEKLYPEYKLPRFSNNAQHGSLKSDAALKKLRDLGIEFAPLEQIVKDSIESLRSKGYIS
modifications: Nepeta cataria or Nepeta mussinii
B4: NcatNOR21: candidate nepetalactol oxidoreductase (NOR) from Nepeta cataria, protein SEQ ID NO: 566 (protein, listed as Nepeta cataria)
chain: MAKSVNAVGWAARDTSGLLSPLKFARPAAGDRDVQFKVLYCGICHSDLHSIKNEWGNTQYPIVPGHEIVGVVTAVGPKATKFKAGDKVGVGCLVNSCRHCDQCAADLENYCPQLVQTYNSVLADGSVTYGGYSDVMTADEDFVIRWPENFPMDKGAPLLCAGVTTYSPLRYYGLDKPGLHIGVVGLGGLGHVAVKFAKAFGMKVTVISTSAGKKKEAIETLGADAFLISRDASEMQAAAGTLDGMIDTVSAQHPLPPLLSLLKPHGKLILVGAPEKPFELPAFPLLMGRKTVAGSVIGGLKETQEMIDFAAKHNLLPEVEMIPMDYVNTAMERLAKADVKYRFVIDVGNTLTKAD

Legend:
[1] = test system: nepetalactol; assay: In vitro characterization of NOR candidates: conversion of nepetalactol to nepetalactone in clarified E. coli cell lysate (GC-MS); format: biochemical, Escherichia coli; conditions: NAD+ or NADP+, 30° C., 2 hours
Protocol: The plasmids were individually transformed into chemically competent BL21 (DE3) cells. pUC19 was also transformed into BL21 (DE3) to produce a strain that could serve as a negative control. Transformants were selected and grown overnight with shaking in LB medium containing kanamycin. Glycerol stocks were prepared by mixing overnight culture with 50% glycerol in a 1:1 ratio. Glycerol stocks were frozen at −80° C.
BL21 (DE3) strains were streaked out on LB plates containing kanamycin from glycerol stock and grown overnight at 37° C. A single colony was inoculated into 4 mL of LB medium containing kanamycin in 15 mL disposable culture tubes and incubated overnight at 30° C. with shaking at 250 rpm. 500 μL of the overnight culture was subcultured into 50 mL of LB medium containing kanamycin in a 250 mL baffled flask. The culture was grown at 37° C. and the optical density at 600 nm (OD600) was monitored. When OD600 reached between 0.6-1, the cultures were cooled on ice for 15 minutes. The cultures were then induced with 100 μM of isopropyl β-D-1-thiogalactopyranoside and incubated at 15° C. with shaking at 250 rpm for roughly 20 hours. Cultures were pelleted by centrifugation in 50 mL centrifuge tubes. The supernatant was decanted and the pellets were frozen at −20° C. for later processing.
Pellets were thawed on ice and resuspended with 3 mL of cold lysis buffer: 50 mM sodium phosphate, pH=7.4, 100 mM sodium chloride. All remaining steps were performed either on ice or at 4° C. The cell mixture was transferred to a 15 mL centrifuge tube and disrupted with three rounds of sonication using the Branson Sonitier 450 with a double-level microtip at 70% amplitude. A single round of sonication consisted of 6 cycles of 10 seconds with the sonicator on, and 10 seconds off Between each round, the cell mixture was allowed to sit on ice for a minute to cool. The lysed cell mixture was transferred to 1.7 mL centrifuge tubes and centrifuged at maximum speed in a microcentrifuge for 20 minutes. The supernatant (clarified cell lysate) was collected in a separate tube and used for in vitro characterization.
The in vitro reactions were setup as follows: 2 μL of 100 mM NAD+ or NADP+ and 10 μL of 100 uM nepetalactol was added to 188 μL of the clarified cell lysate. The reactions were incubated at 30° C. shaking at 200 rpm for 2 hours. As a positive control, 2 μL of 100 mM NAD+, 2 μL of 100 mM NADP+ and 10 μL of 100 μM nepetalactone was added to 186 μL of clarified lysate from a strain harboring pUC 19 and incubated for 1 hr. The reactions were extracted with one volume of ethyl acetate. The organic layer was withdrawn and analyzed with gas chromatography coupled to mass spectrometry (GC-MS). Authentic standards were run to confirm identities of analytes.

[2] = test system: nepetalactol; assay: Production of nepetalactone from fed nepetalactol in Saccharomyces cerevisiae strains expressing NOR candidates from pESC-URA; format: cell-based; conditions: 100 mg/L nepetalactol, 2% galactose, 24 hours
Protocol: The plasmids were individually transformed into chemically competent Saccharomyces cerevisiae cells as described in EXAMPLE 2. Transformants were selected on SD-URA agar plates. Three to four replicates were picked into SD-URA liquid medium and cultured at 30° C. for one to two days with shaking at 1000 rpm. Cultures were glycerol stocked at a final concentration of 16.6% glycerol and stored at −80° C. until later use.
10 μL of the glycerol stocked strains was inoculated into 300 μL of minimal media lacking uracil, and containing 4% glucose in 96-well plates to produce seed cultures. The plates were incubated at 30° C. at 1000 rpm for 1-2 days. 10 μL of the seed cultures was then inoculated into 300 μL of minimal media lacking uracil, and containing 2% galactose and 100 mg/L of nepetalactol. 30 μL of methyl oleate was next added to the wells. […]
Cell density was determined using a spectrophotometer by measuring the absorbance of each well at 600 nm. […] The plates were shaken for 25 sat 750 rpm immediately before being measured on a Tecan M1 000 spectrophotometer. […] The plates were centrifuged and the ethyl acetate layer was collected and analyzed by liquid chromatography coupled to mass spectrometry (LC-MS). Target analytes were quantified against authentic standards.

| Molecule | conversion (oxidation) of nepetalactol to nepetalactone [1] | conversion (oxidation) of nepetalactol to nepetalactone ([1]; listed as NcatNORI5) | nepetalactone produced [2] [mg/L] |
| --- | --- | --- | --- |
| B1 | can convert nepetalactol to nepetalactone | can oxidize nepetalactol to nepetalactone |  |
| B2 | can convert nepetalactol to nepetalactone; also recorded: can oxidize nepetalactol to nepetalactone |  |  |
| B3 |  |  | 93 |
| B4 | can convert nepetalactol to nepetalactone; also recorded: can oxidize nepetalactol to nepetalactone |  |  |
